Where “and” joins values, the source holds several entries; their conditions need not be identical. Equal values may be shown once.

In the assay the target is GFP-tagged TDP-43-ΔNLS-KQ (GFP-TDP43-ΔNLS-K145Q, pTX066) (human) (UniProt Q13148). Kind of assay: non-reducing SDS-PAGE and immunoblot of immunoprecipitated aggregates.

With “GFP-tagged TDP-43-ΔNLS-KQ (GFP-TDP43-ΔNLS-K145Q, pTX066) (from UniProt Q13148 1-414) (natural protein)”, the stoichiometry N (usually the number of molecules, sites or subunits per partner or assembly) is 2 and 4.

The record behind these values is paper PMC10173608.
